Test results published in patent US20230295313A1.
Changes are numbered by the printed parent chain.

B1: mAb063 (antibody, V domains shown)
VH: EVQLQQSGPELVKPGASVKISCKASGYTFTDYYMNWVKQSHGKSLEWIGHINPNSGSTTYTEKFKDKATLTVDKSSSTAYMELRSLTSDDSAVYYCVRRIGKNWHCDVWGTGTTVTVSS
VL: DIVLTQSPASLAVSLGQRATISCRASESVNFHGTHLMHWYQQKPGQAPKLLIYAASNLDSGVPARFSGSGSETDFTLNIHPVEEEDAATYFCQQSIEDPFTFGSGTYLEIK
B2: murine mAb067 (antibody, V domains shown)
VH: QVKLHQSGAELAKPGASVKMSCKASGYTFNSYWIHWVKQRPGQGLEWIGYNNPTSGYSEYNQKFTDKATLSADKSSSTAYMQLSSLTSEDSAVYYCVREYGDLFAYWGQGTLVTVSA
VL: NIVMTQSPKSMSMSVGERVTLSCKASENVGYSVSWFQQKPDQSPKLLIYGASNRYTGVPDRFTGSGSATDFTLTISTVQAEDLADYHCGQIYIYPYTFGGGTKLEIK
B3: murine mAb001 (antibody, V domains shown)
VH: QVQLQQPGAELVRPGSSVKLSCKASGYTFTSYWMDWVKQRPGQGLEWIGNIYPSDSKTHYNQKFKDKATLTVDKSSSTAYMQLSSLTSEDSAVYYCARDYYGSIGMDYWGQGTSVTVSS
VL: DIQMTQSPSSLSASLGERVSLTCRASQEISGYLSWLQQKPDGTIKRLIYAASTLDSGVPKRFSGSRSGSDYSLTISSLESEDFADYYCLQYASYPWTFGGGTKLEIK
B4: murine mAb016 (antibody, V domains shown)
VH: B3 VH with K57A, V72I, Y108S
VL: B3 VL with G31D, Y94F
B5: murine mAb048 (antibody, V domains shown)
VH: QVQLQQPGADLVKPGASVKLSCKAYGYTFFSYWMHWVRQRPGQGLEWIGMIHPNSGTTNNNEKFKSKATLTVDKSFSTAYMQLSSLTSEDSAVYYCARGYSNYDFDYWGQGTILTVSS
VL: DIKMTQFPSSMYASLGERVTITCKASQDINTYLIWIQQKPGKSPKTLIYRANRLADGVPSRFSGSGSGQDSSLTISSLEHEDMGIYYCLQYDEFPYTFGGGTKLEIK
B6: murine mAb117 (antibody, V domains shown)
VH: QAYLQQSGAELVRPGASVKMSCKASGYTFTSYNMHWVKQSPRQGLEWVGVFYLGNGDTSYNEKFKGKATLTVDKSSSTAYMQLSSLTSEDSAVYFCARPGGYANWYFDVWGTGTTVTVSS
VL: DIVMTQSQKFMSTSVGDWVSVTCKASQNVGTEVSWYQQKPGQSPNTLIYSASYRHSGVPDRFTGSGSGTEFTLTITNVQSEDLADYFCQQYNSFPLTFGAGTKLDLK

How the values were obtained:
[1] = target: biotin-labeled human IL1RAP (human) (UniProt Q9NPH3); assay: competition ELISA; competitor: capture mAb117 coated; biotin-hIL1RAP
[2] = target: biotin-labeled human IL1RAP (human) (UniProt Q9NPH3); assay: competition ELISA; competitor: capture mAb048 coated; biotin-hIL1RAP
[3] = target: biotin-labeled human IL1RAP (human) (UniProt Q9NPH3); assay: competition ELISA; competitor: capture mAb016 coated; biotin-hIL1RAP
[4] = target: biotin-labeled human IL1RAP (human) (UniProt Q9NPH3); assay: competition ELISA; competitor: capture mAb001 coated; biotin-hIL1RAP
[5] = target: biotin-labeled human IL1RAP (human) (UniProt Q9NPH3); assay: competition ELISA; competitor: capture mAb063 coated; biotin-hIL1RAP
[6] = target: biotin-labeled human IL1RAP (human) (UniProt Q9NPH3); assay: competition ELISA; competitor: capture mAb067 coated; biotin-hIL1RAP

biotin-labeled human IL1RAP (human), sequence (Q9NPH3 21-367 limits assumed): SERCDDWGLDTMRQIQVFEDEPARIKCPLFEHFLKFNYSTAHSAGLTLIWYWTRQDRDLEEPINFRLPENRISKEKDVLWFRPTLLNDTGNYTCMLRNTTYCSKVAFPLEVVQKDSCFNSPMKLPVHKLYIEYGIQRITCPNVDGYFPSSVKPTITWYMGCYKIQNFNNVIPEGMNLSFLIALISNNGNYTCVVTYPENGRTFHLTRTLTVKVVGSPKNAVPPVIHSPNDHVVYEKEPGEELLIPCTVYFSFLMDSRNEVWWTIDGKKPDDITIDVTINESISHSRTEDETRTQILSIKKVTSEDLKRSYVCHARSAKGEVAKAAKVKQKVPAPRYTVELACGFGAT

Binder | % inhibition [1] [%] | % inhibition [2] [%] | % inhibition [3] [%] | % inhibition [4] [%] | % inhibition [5] [%] | % inhibition [6] [%]
B1 | 92 | 82 | 97 | 94 | 96 | 87
B2 | 91 | 83 | 97 | 94 | 72 | 87
B3 | 82 | 68 | 90 | 93 | 75 | 76
B4 | 89 | 78 | 94 | 95 | 80 | 76
B5 | 94 | 84 | 98 | 95 | 86 | 90
B6 | 95 | 83 | 98 | 93 | 87 | 86
